The record followed here is a protein production outcome set (Wang et al. 2014).

The nature of the series: label from the status in PepcDB records.
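Also: failed if final PepcDB status was selected cloned or expressed and not failed if soluble or beyond.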

“MMTAPGIYYDGRTSARRTVRLTLEGNRLLVAGEGVETSAELSRLAISSPLSTARRSVRFPSGALCEVSDTRFVDELMRRQGKGRASAAIHRWERSLPLALVALVATVAVVWGFVAFGIPALADKVARAVPPVTEVSLGRESLAMLDKLVFTPSRLPDARRRDIAAQFSRMGRDLPFAAGYRLEFRRSDQLGANALALPSGIIVVTDRLVEIAQSDDELIGVLAHEMGHVRHRHALRHVLQNSATGLIIAAITGDITSITSLAATLPTVLVDASYSRSFETEADDAAVAYLKRRGIPLKSYAAMLGRLEAEHRKKQEEKGKKEKKSLGDYFSTHPVTEERIKRVLEAGRLEHHHHHH”: the protein production entry is listed as “not failed”. With “MMTGLYLGALAGIAVALAVLMAGAWVVQQLTGNSGWVDTIWTFSLGLTGAVSSLWPIDGAAPDARQWLVAVLVATWSLRLGSHIAARTRHITDDPRYAAYAAQWGTDAPKRMFFFLQNQAYGTIPLVFAIFVAAHAPAGSLRLQDYLGVLILIVAIAGEGLSDAQLKAFRENSANKGKVCDAGLWRWSRHPNYFFQWFGWLAYPVIAIPFAEPLSYLWGYAALLAPLFMYWILVYVTGIPPLEEQMLKSRGDRYRDYQARTSMFFPLPPRRSATL”, the protein production result was “failed”. For “MMTKAFFNKLPFEVFRRYVRTGKSIPQRSPRTRKSLLVGGTIASAVVLYNFNDTFHDSVKHTALTTKRIAVVTQATTRCFYHYKRALNKSYENKKEREVALNKCHKMCALITLHALRSNGGIYIKLGQHIGAMTYLLPKEWTDTMIPLQDHCPESTYEEIDELFKEDLGTSIEDMFLEFNKTPIGVASLAQVHVAKLKNSDGKGSSVAVKCQHPSLKEFIPLDVMLTRTVFELLDVFFPDYPLTWLGDELQSSIYVELNFTKEAENAEKTRHYFSKFKKQTALKIPKVIESHKRILIAEYVGGKRLDDLEYIDSHGISRSEVSSCLSHIFNNMIFTPNVGIHCDPHGGNLAIRSVKPAKDNGYHNFEIVLFDHGLYRYPSTRTRRLYAKFWLSLLFDKDQTKMKKYAKGFANITDEQFPLLAAAITGRSIDAALNYDISTSRTQEEMDVMANGILEGTLLSDLMSILSRIPRVVLLILKTNDLTRHLDECLQNPLGPERTFLIMTQYCAKTVYDEKVERINSEYARWSIKWMWENLTNWIVYERRINQLYFYDFVLWWKKFIPKTWLSS” the value was “failed”. Turning to “MMTLIRITSADDSRLNRLIPLYEESFPESERRKIGQLKRMIENHAPMYFNAIECDGELSGMFVYWDMGDFYYLEHLAVFPEMRNKKIGQQVLDYVAEHLKGVRLLEVEPTEDEMTTRRVNYYRRNGYEVLDKTYVQPSYHA”, the protein production result was “failed”. The result for “MMVGLINAIPVANKDEYKNVGVYIEHRGDEIKRSSLEMIGIGKQLARKINEKLLCVVIGDKVDGIAKEVGEYGCDIVLAAESPDLAEYRTMPYAQIIGDYIAEYKPNIFLLAATRNGRDLASRIAVKERTGITADCTVLDVDENRTLLANRPTYGESTLAEILCRNHRPQMATARPGTFTPAEKEKDHKYEIVKKKVNVDKNMLKKQIIKFIPKKATDLTAAKIVVAGGLGLGGPDGFKLLQDLADLIGGAVGSSRPPVDLGWITRDHQVGQTGQAVRPDLYVAVGISGKPQHVAGMKFSKVIISINKDPNAEINKISDYIIVEDYRKAVPALIDAIKNFGKQKVAEAQKA” reads “failed”; that for “MMYSKFISFLKQIPLPICGLILGLISLGNLLYSKGYPILGNSYDMLGLFLMFLILLKIVLAMKHTISTLNDPIVASVSPTFTMSLMVLSVFLKRLSGFSLLANVTWWTALILHLILMMYFIYLHVLPKELKIHDVYPSWFITFVGIGVISATSPDFGLEVGKVVVWITLLFYFILLPIVMHRVFILRKMHKSLLPLITIITAPGSLGLVGYLTVVEAKSKIFVIFLFILSQAIYFITLGLLTKLLRSAFYPSYAAFTFPLVISATAVNLTSKLSVFQFLNLELLANMEILIAIAIVTYVLIRYCIFLGSKLVQIMSEKYSPESI”, “failed”. The result for “MMYVTVMPVFLAGVANRFFCKSDILAWTYQPIDGGFTMSDGKRILGANKTWKGFWGMITLTTFCQVIWGFILGIIPHLLTFSLVKSYHNDIFFNLFIGFLMGSAYVLCELPNSFIKRRFNVSPGQLASGNARWVFLFADQIVPFLGSIAVVAIFSPMTFSYYVGYVLLAAITLFAINSLILFVEMKRK” reads “failed”; that for “MNAAQVQALIRMGLPMAEDIDFRVERLDERHALARIPFHGKLVRPGGTLSGPTIMALADAAMYAVILGRLGAVEMAVTSNLNINFLSKPRPEDLLAEASILKLGRRQVVCEVGVFSQSNEEDLVAHVTGTYALPLLEHHHHHH”, “not failed”; that for “MNAARYAEHLAIFVEVARGGSFSAVARRHGATPSTITRKIDMLEEFVGTNLLVRSTRALLLTEAGETLFARGVSVLEALTDIHNEVIALSDSMYGTLRISCLPTFGKLHVLPWLADLQQRHPSMRIDLDLTERLTNPSVERLDAAIRIGKLKDSSLFAKQIGTQRWVICASPDYLRQRGHPSDLEDLRRLRLIDKLHDPHSMCWRRLVEKGHIDQIEAAFRCDDFEAMRQAALCGLGAAFLPDWVIAQDLAAGALIRLFDDPEGREDGIHLVRALPKMSAKLEVFHQALSNHLGQVRIGGCLPASR”, “failed”. For the sequence “MNAATLVDTHAVDTALQEAFEAAPEGFALFDAEDRCVIWNARYGELWSKWGVTLAVGATFESLLLAGLAAGRFPEANGDRAAWLAHQLGRRKLDRIEEIREEFGEYLRFESRRTPAGGLITTCANLTNLRRREAQALAARSFLDTIVENTPAMLFVKDGDTGAFLLVNRAAENQLGVPRAELLGKSDYDFFPKEQADAFAADDRRVIASGKLVTIDEEPLDTPHNGRRWLQTRKIAIPGEDGRRHLLVICEDITERKAGAAALAEALQKAEAGSVAKSEFLANMSHEIRTPLNGVIGMAEVLSRTALDDAQREMMEVILNSGRALNLLLSDILDLSKIEAGGLELSRDPLDLREAITAAVAVFKAVAESKGLVFRLTFADDFHDHVLGDALRVRQIVANLTSNAVKFTTAGSVIIEARTLVAEDGRIDLTVSVQDTGEGFDEDSADRLFERFQQADGSVTRKVGGTGLGLPIARRLARLMDGEISCVAHPGEGATFVFEALFLADGQRTPALEHHHHHH”, the protein production entry was “failed”. For the sequence “MNAIGIVGTGAMGRGIAQIAAQAGLRVRLFDASPQAVEAARAALADTLARLAAKGRLTADQADAALARLMPAAALAELADCDLVVEAIVENLEAKRDLFRQLEAIVGPETILASNTSSLSITAIAAACRRPERVAGFHFFNPVPLMKVVEVIAGLRSAPAACDALAALAGRMGHAAVRCTDMPGFIVNHAGRGMNTEGLRVVQEGVTAFADVDAVMREQAGFRMGPFELMDLTGLDVSHPVMESIYRQFYDEPRYRPSRITAVRLAGGLLGRKTGEGFYRYADGQKPVPPEAAAPAARPKSVWVSRAHAAGHTAAQRLLLDLCVTPEDGAWPSAEALIVVTPRGLDATAAAVAEGLDGRRTVALDTLYPFAATRRRTLMTTPATDPAHRDAAHGLFAADGVPVTVIRDSGGFVAQRIVACIVNIACDIAQQRIATPADIDLAVTLGLGYPQGPLALGDTLGAGAVLEVLQNLTTLYGDPRYRPSPWLLRRARLGLSLLTPDA”, the protein production entry is recorded as “failed”. Regarding “MNAKIIASLAFTSMFSLSTLLSPAHAEEQEKALNFGIISTESQQNLKPQWTPFLQDMEKKLGVKVNAFFAPDYAGIIQGMRFNKVDIAWYGNLSAMEAVDRANGQVFAQTVAADGSPGYWSVLIVNKDSPINNLNDLLAKRKDLTFGNGDPNSTSGFLVPGYYVFAKNNISASDFKRTVNAGHETNALAVANKQVDVATNNTENLDKLKTSAPEKLKELKVIWKSPLIPGDPIVWRKNLSETTKDKIYDFFMNYGKTPEEKAVLERLGWAPFRASSDLQLVPIRQLALFKEMQGVKSNKGLNEQDKLAKTTEIQAQLDDLDRLNNALSAMSSVSKAVQ”, the protein production result was “failed”. In the case of “MNAKSRPSRKLLKGAVIGPAQLMADQPFSVIRAVSRRSDRDHVGVLAAGVAFFSLLASFPALVTLITLYGLFTGPQEAVRQIAEAGVYLPRGVHDLLAEHLPRLAQASPGSLGLGAITSLLFSIWSASRGMGAMVDGVDIAYQVGDGRGFLRKSILVVGLTLAGLVVSAIALPLIVGLPALFDRLPLPLEIRWALALARWPLLFALVLGALAVLFRYAPDRENPRWRWVTPGALAAATLWILASGGLSLYVGLVSSYDQTYGTLAGVVVAMMWLYLASYAVLLGAEINAELEDRGMERIKKDQAAAKAAVARA”, the protein production result is given as “failed”.

Regarding “MNALALGAKSFPIFWHYWNPIWGYYLSRNVMRPISQFLPMWLAVLVTFLVSGALHDLAIALVKWQAMFFFTPWFGIMGVIVIASNKYGLSYGALPWIMRAMINLLFILSSFSLTELTQGLLRLSA”, the protein production result is “failed”. Consider “MNALKNLSLILLLSLAFTGCHNKSSKINDFNLLLYAPEYASGFDIKGAGGKESVLITVRNPWQGADSVTTWLFIVRNGEEVPEGFAGQVLKGDAKRIVAMSSTHIAMLDAIGEVRCITGVSGIDYISNPDIQARRDSIGDVGYEGNINYELLLSLDPDLVLLYGVNGASAMESKLEELDIPFMYVGDYLEESPLGKAEWMVVLSEVTGKREKGEKAFAAIPVRYNALKKKVADSTLGTPSVMLNVPYGDSWFMPSTQSYVARLITDAGGRYIYQKNTGNASIPIDLEEAYLLASDADMWLNVGMANSLDDLKASCPKFTDTRCFKNGEVYNNNARTNTAGGNDYYESAVVNPDIVLRDLVKIFHPELVQEECVYYKQLK”, for which the protein production result is recorded as “failed”.

As for “MNARLENLMQWLKEKNVEAAFLTSTPNVFYMTNIHCEPHERLLGMFVFQEKEPILICPKMEEGQARNAGWAHEIIGFTDTDRPWDMIAKAIKDRGINANAVAIEKEHLNVERYEELTKLFPNAAFTSAEEKVRELRLIKDEKELSILREAAKMADYAVEVGVNAIKEDRSELEVLAIIEHELKTEGIHKMSFDTMVLAGANSALPHGIPGANKMKRGDFVLFDLGVIIDGYCSDITRTVAFGDISEEQTRIYNTVLAGQLQAVEACKPGVTLGAIDNAARSVIADAGYGDFFPHRLGHGLGISVHEYPDVKAGNESPLKEGMVFTIEPGIYVPNVGGVRIEDDIYITKDGSEILTKFPKELQFVK”, the protein production entry is “failed”. Take “MNATHEALAIRARPRPASAPSAVLTLAWRAMLKIKHVPFQLFDVTVTPIMFTLLFTFIFGGALAGSPRQYVQYLVPGVLVQTVLFITVYTGVGLNSDIRKGLYDRFRSLPMWQPAPLLGALAGDVFRYSVAGGVILVVGFILGFRPQGGAPGVLAAMALVLVFSFALSWLWIVVGMLVRTPESVMTTSFVFLMPLTFASDIFVGLGTMPGWLQGVVRHNPVTHLANASRDLMHGRPAGADVSWTLLASLVIVAAVAPLAMRLYRKER”: the protein production entry is “failed”.

“MNAYYLLAIAVCAEVIATTSMKAVKGLSTPLPLILLITGYAIAFWMLILVMRTIPVGITYAIWSGMGIVMVSVAAYFIYGQKLDLPALLGMGMIVAGVAVIQLFSKTAGH”: the protein production result is on record as “failed”. For the sequence “MNCGRIRSLLQGGEATAGPVIYWMSRDQRVADNWALIHAQKLALARSAPLGVLFCLAPRFLGATARQYRFMLKGLEQVRAALNRLDIPFFLVTGDPKGAVAAFTRRHRVSYLVTDFDPLRVKREWKRQVAGEISIPFDEVDAHNIVPCWITSQRQEWGAYTIRPKIHRLLPDFMEPFPPLQRHPFPWQGALPSDAEWRETFTGMTLDESVPEVSWLASGEEAAQAALARFLEDGLAGYATRRNNPAVMGQSGLSPWLHFGQLSAQRVAQAAFAAAAPIESRDAFLEELIVRRELADNFCYYNDAYDRFDGFPEWAQRTLNRHRHDPRPQCYEHDVLEQGQTHDSLWNAAQLEMVRWGRMHGYLRMYWAKKLLEWTSSPEDALMIAIQLNDRYQLDGRDPNGYAGIAWSIGGVHDRPWAERPVFGTIRFMSRDGCRRKFDTDAYERRVIISPATCAGIALCK”, the protein production entry is on record as “failed”.
